This assay deals with T1, MBP-AtWRKY20 fusion protein (Arabidopsis thaliana, UniProt Q93WV0 1-557).
T1 sequence (looked up): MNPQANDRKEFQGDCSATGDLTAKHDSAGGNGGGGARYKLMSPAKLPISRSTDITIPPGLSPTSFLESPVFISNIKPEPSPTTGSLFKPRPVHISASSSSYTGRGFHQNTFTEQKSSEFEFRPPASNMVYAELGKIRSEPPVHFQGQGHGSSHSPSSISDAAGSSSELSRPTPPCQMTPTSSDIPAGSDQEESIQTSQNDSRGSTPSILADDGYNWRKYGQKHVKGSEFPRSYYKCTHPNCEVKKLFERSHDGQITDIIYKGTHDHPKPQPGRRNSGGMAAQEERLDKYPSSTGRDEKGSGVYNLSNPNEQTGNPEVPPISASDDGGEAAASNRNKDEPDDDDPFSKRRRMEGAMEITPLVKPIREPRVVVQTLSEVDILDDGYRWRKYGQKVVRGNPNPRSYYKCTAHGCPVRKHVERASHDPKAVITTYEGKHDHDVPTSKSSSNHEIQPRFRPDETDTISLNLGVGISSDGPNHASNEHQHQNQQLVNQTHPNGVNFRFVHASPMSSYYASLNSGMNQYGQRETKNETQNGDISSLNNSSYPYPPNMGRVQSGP
The experiment in a line: pull-down.

B1: GST-AtORA59 (natural protein)
chain: not shown
On to B1, for which the binding result was “binds”.

The record behind these values is article PMC6703867 (Science Advances, 2019).
